Laboratory results as given in PMC9482650, “Quantitative fragmentomics allow affinity mapping of interactomes” (Nature Communications, 2022).
Residue numbers refer to the chain shown, from its start.

Key:
Experiment in all cases: holdup assay
Parameters in all cases: key: below the threshold = too weak to quantify, mostly under pKd 3.1 to 4
[1] = molecular target: T1, LIN7B, Q9HAP6
T1 sequence (Q9HAP6 88-185, limits assumed, looked up): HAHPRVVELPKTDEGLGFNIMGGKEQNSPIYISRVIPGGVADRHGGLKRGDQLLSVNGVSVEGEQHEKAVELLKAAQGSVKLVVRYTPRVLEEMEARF

[2] = molecular target: T2, LIN7A, O14910
T2 sequence (O14910 103-200, limits assumed, looked up): T1 sequence (Q9HAP6 88-185, limits assumed, looked up) with A2S, I20V, V35I, D42E, Q65H, Q77K, G78D, R89K

[3] = molecular target: T3, RADIL, Q96JH8
T3 sequence (Q96JH8 971-1071, limits assumed, looked up): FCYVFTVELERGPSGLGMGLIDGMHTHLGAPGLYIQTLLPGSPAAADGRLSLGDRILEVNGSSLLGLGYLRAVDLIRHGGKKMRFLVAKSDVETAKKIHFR

[4] = molecular target: Inadl_1, Q8NI35
[5] = molecular target: T4, SNTA1, Q13424
T4 sequence (Q13424 82-180, limits assumed, looked up): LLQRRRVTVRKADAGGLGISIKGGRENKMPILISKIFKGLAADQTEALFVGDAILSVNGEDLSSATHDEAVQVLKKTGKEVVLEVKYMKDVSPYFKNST

[6] = molecular target: T5, TX1BP3, O14907
T5 sequence (O14907 10-122, limits assumed, looked up): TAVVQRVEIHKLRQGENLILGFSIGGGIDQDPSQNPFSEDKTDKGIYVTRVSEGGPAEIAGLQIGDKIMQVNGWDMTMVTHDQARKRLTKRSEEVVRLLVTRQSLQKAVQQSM

[7] = molecular target: PICK1, Q9NRD5
[8] = molecular target: GORASP2, Q9H8Y8
[9] = molecular target: T6, APBA2_1, Q99767
T6 sequence (Q99767 563-664, limits assumed, looked up): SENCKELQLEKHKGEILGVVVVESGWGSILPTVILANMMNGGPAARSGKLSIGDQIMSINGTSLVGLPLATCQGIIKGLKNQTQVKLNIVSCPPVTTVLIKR

[10] = molecular target: DLG5_1, Q8TDM6
[11] = molecular target: T7, DLG3_2, Q92796
T7 sequence (Q92796 221-321, limits assumed, looked up): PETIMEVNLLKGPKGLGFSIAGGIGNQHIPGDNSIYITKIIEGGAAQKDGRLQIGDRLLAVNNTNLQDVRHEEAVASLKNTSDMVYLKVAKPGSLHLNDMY

[12] = molecular target: GRID2IP_2, A4D2P6
[13] = molecular target: TJP1_2, Q07157
[14] = molecular target: T8, SNTG2, Q9NY99
T8 sequence (Q9NY99 68-166, limits assumed, looked up): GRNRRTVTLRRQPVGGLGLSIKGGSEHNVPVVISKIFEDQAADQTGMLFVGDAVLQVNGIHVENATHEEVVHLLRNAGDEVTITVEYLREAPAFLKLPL

[15] = molecular target: CASK, O14936
[16] = molecular target: T9, SNTG1, Q9NSN8
T9 sequence (Q9NSN8 52-150, limits assumed, looked up): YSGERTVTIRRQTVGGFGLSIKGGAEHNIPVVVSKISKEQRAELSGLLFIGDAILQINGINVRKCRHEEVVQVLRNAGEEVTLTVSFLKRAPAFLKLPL

[17] = molecular target: MAST2, Q6P0Q8
[18] = molecular target: T10, PDZRN3_1, Q9UPQ7
T10 sequence (Q9UPQ7 244-349, limits assumed, looked up): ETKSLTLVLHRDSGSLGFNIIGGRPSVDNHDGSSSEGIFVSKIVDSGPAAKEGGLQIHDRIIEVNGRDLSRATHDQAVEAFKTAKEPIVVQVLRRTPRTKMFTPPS

[19] = molecular target: T11, TIAM2, Q8IVF5
T11 sequence (Q8IVF5 885-986, limits assumed, looked up): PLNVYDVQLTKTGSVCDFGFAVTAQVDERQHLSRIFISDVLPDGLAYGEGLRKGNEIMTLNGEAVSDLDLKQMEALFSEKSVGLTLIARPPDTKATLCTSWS

[20] = molecular target: NHERF4_2, Q86UT5
[21] = molecular target: ARHGEF12, Q9NZN5-2
[22] = molecular target: MAGI1_1, Q96QZ7
[23] = molecular target: FRMPD4, Q14CM0
[24] = molecular target: T12, DLG3_1, Q92796
T12 sequence (Q92796 125-227, limits assumed, looked up): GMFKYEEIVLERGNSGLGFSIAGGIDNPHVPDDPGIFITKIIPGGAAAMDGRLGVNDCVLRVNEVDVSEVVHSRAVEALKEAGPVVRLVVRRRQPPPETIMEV

[25] = plain residues with an end cap or a label only (N-terminal biotin on a linker: ado-ado)
[26] = plain residues with an end cap or a label only (N-terminal biotin on a linker: ahx)

Chain of PICK1, Q9NRD5 (Q9NRD5 17-115): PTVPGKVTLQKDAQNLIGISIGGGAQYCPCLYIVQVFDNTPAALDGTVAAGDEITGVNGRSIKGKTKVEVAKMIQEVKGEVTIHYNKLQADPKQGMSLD
Chain of MAST2, Q6P0Q8 (Q6P0Q8 1099-1202): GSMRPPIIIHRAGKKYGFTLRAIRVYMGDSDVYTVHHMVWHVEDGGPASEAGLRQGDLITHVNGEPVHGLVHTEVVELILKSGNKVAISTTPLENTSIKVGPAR
Chain of GRID2IP_2, A4D2P6 (A4D2P6 272-370): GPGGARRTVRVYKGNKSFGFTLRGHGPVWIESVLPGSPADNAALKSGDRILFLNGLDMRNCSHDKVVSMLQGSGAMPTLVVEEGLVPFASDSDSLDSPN
Chain of ARHGEF12, Q9NZN5-2 (Q9NZN5 other isoform, or with tags, fused parts or gaps): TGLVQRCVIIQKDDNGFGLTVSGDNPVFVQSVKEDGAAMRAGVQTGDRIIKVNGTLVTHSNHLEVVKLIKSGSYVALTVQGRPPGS
Chain of FRMPD4, Q14CM0 (Q14CM0 67-160): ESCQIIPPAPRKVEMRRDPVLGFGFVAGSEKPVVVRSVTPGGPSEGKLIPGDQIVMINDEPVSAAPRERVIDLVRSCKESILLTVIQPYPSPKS
Chain of DLG5_1, Q8TDM6 (Q8TDM6 617-713): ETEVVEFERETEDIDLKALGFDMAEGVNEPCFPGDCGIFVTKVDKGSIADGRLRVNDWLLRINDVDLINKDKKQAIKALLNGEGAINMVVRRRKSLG
Chain of NHERF4_2, Q86UT5 (Q86UT5 220-308): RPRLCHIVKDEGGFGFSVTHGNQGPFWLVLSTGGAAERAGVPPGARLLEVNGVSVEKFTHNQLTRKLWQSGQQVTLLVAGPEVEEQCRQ
Chain of Inadl_1, Q8NI35 (Q8NI35 113-229): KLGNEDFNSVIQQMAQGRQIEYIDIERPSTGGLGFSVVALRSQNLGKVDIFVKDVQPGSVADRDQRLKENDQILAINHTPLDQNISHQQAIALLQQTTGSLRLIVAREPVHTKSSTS
Chain of TJP1_2, Q07157 (Q07157 181-274): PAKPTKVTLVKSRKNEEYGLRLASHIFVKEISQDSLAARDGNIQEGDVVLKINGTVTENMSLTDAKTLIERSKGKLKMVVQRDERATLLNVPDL
Chain of MAGI1_1, Q96QZ7 (Q96QZ7 1-106): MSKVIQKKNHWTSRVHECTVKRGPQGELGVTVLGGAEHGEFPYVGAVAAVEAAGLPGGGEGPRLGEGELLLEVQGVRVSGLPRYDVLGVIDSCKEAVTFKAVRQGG
Chain of CASK, O14936 (O14936 487-570): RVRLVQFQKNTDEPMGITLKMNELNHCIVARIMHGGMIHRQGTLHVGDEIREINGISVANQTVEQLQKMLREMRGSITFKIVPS

DFLSTFHIRI [CIB2, O75838]
pKd [1, 25]: 3.67
pKd [2, 25]: below the threshold
pKd [3, 25]: 4.19
pKd [4, 25]: 3.91
pKd [5, 25]: below the threshold
pKd [6, 25]: below the threshold
pKd [7, 25]: below the threshold
pKd [8, 25]: 4.46
pKd [9, 25]: below the threshold
pKd [10, 25]: below the threshold
pKd [11, 25]: 3.97
pKd [12, 25]: below the threshold
pKd [13, 25]: below the threshold
pKd [14, 25]: 3.62
pKd [15, 25]: below the threshold
pKd [16, 25]: below the threshold
pKd [17, 25]: 4.68
pKd [18, 25]: below the threshold
pKd [19, 25]: 4.59
pKd [20, 25]: below the threshold
pKd [21, 25]: below the threshold
pKd [22, 25]: below the threshold
pKd [23, 25]: below the threshold
pKd [24, 25]: below the threshold

DPAESMESLV [PTPRG, P23470]
pKd [1, 25]: below the threshold
pKd [2, 25]: 3.7
pKd [3, 25]: 4.23
pKd [4, 25]: below the threshold
pKd [5, 25]: 4.46
pKd [6, 25]: 4.03
pKd [7, 25]: 4.13
pKd [8, 25]: below the threshold
pKd [9, 25]: below the threshold
pKd [10, 25]: below the threshold
pKd [11, 25]: 4.72
pKd [12, 25]: below the threshold
pKd [13, 25]: below the threshold
pKd [14, 25]: 4.24
pKd [15, 25]: below the threshold
pKd [16, 25]: 4.66
pKd [17, 25]: 4.69
pKd [18, 25]: 3.96
pKd [19, 25]: below the threshold
pKd [20, 25]: below the threshold
pKd [21, 25]: below the threshold
pKd [22, 25]: below the threshold
pKd [23, 25]: 3.58
pKd [24, 25]: 4.23

QPRTWLQSPV [RTKN, Q9BST9]
pKd [1, 26]: below the threshold
pKd [2, 26]: below the threshold
pKd [3, 26]: below the threshold
pKd [4, 26]: below the threshold
pKd [5, 26]: below the threshold
pKd [6, 26]: 6.05
pKd [7, 26]: below the threshold
pKd [8, 26]: below the threshold
pKd [9, 26]: below the threshold
pKd [10, 26]: below the threshold
pKd [11, 26]: 4.04
pKd [12, 26]: below the threshold
pKd [13, 26]: below the threshold
pKd [14, 26]: below the threshold
pKd [15, 26]: below the threshold
pKd [16, 26]: 3.52
pKd [17, 26]: 4.13
pKd [18, 26]: below the threshold
pKd [19, 26]: below the threshold
pKd [20, 26]: below the threshold
pKd [21, 26]: 3.99
pKd [22, 26]: below the threshold
pKd [23, 26]: below the threshold
pKd [24, 26]: below the threshold
